Literature values in publication PMC7550760.

Molecular target: His84 (UniProt position 104, ACRVNHVTLSQ)
Details: monomeric native-like protein implied; not stated

Substance | pKa
beta2-microglobulin (wild type, full length) (Homo sapiens) | 4.1
beta2-microglobulin deltaN6 variant (Homo sapiens; del1-6) | 5.9
